Experiments:
[1] = target: Dam1 complex (S. cerevisiae) (UniProt P53267); experiment: velocity sedimentation
microtubules = microtubules (UniProt Q6B856); experiment: bead-microtubule-binding assay

Row | Substance | stoichiometry N [1] | density of microtubule-attached beads (beads × mm^−2) (microtubules)
1 | Dam1 complex (from UniProt P53267 1-343; Q12248 1-94) | 2 | –
2 | Ndc80 complex (from UniProt P40460 1-691; P33895 1-451) | – | 7800

Reference: article PMC2872917
